First the molecules themselves.
B1: CPEB3 Ribozyme (parent)
chain: UAACAGGGGGCCACAGCAGAAGCGUUCACGUCGCAGCCCCUGUCAGAUUCUGGUGAAUCUGCGAAUUCUGCUGUAUAUCUC

This series covers variants of B1. Nature of the series: self-cleavage, relative activity (ratio to wild type); higher = more cleavage; in vitro, sequencing. A digest of the protocol: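 Libraries of CPEB3 self-cleaving ribozyme mutants came from rounds of error-prone PCR and carried barcodes, which DNA sequencing matched to variants. In vitro transcription used T7 RNA polymerase at 37°C for 5 hours, with a further 15 min in DNase I before EDTA stopped the reaction; the ribozymes cleaved during both steps. The RNA was reverse transcribed with template switching and sequenced on Illumina. Relative activity is the cleaved/total read fraction of a variant divided by that of the unmutated ribozyme, averaged over three batches with at least 5 reads.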
UAACAGGGGGCCACAGCAGAAGCGUUCACGUCGCAGCCCCUGUCAGAUUCUGGUGAAUCUGCGAAUUCUGCCGUGUAUCUC: the self-cleavage was found to be 1.14.

For UAACAGGGGGCCACAGCAGAAGCGUUCACGUCGCAGCCCCUGUCAGAUUCUGGUGAAUCUGCGAAUUCUGCCGUUUAUCUC, the self-cleavage turned out to be 1.25. UAACAGGGGGCCACAGCAGAAGCGUUCACGUCGCAGCCCCUGUCAGAUUCUGGUGAAUCUGCGAAUUCUACUGUAUAUCAC: the self-cleavage was 1.

With UAACAGGGGGCCACAGCAGAAGCGUUCACGUCGCAGCCCCUGUCAGAUUCUGGUGAAUCUGCGAAUUCUACUGUAUAUCCC, the self-cleavage was determined as 0.45.

On to UAACAGGGGGCCACAGCAGAAGCGUUCACGUCGCAGCCCCUGUCAGAUUCUGGUGAAUCUGCGAAUUCUGGUGUAUAUCGC, for which the self-cleavage stood at 0.4.

For the variant UAACAGGGGGCCACAGCAGAAGCGUUCACGUCGCAGCCCCUGUCAGAUUCUGGUGAAUCUGCGAAUUCUGGUGUAUUUCUC, the self-cleavage was 0.13.

As for UAACAGGGGGCCACAGCAGAAGCGUUCACGUCGCAGCCCCUGUCAGAUUCUGGUGAAUCUGCGAAUUCUGAAGUAUAUCUC, the self-cleavage came out at 0.22. In the case of UAACAGGGGGCCACAGCAGAAGCGUUCACGUCGCAGCCCCUGUCAGAUUCUGGUGAAUCUGCGAAUUCUGACGUAUAUCUC, the self-cleavage was 0.41. As for UAACAGGGGGCCACAGCAGAAGCGUUCACGUCGCAGCCCCUGUCAGAUUCUGGUGAAUCUGCGAAUUCUUCUGUAUGUCUC, the self-cleavage was found to be 0.4. On to UAACAGGGGGCCACAGCAGAAGCGUUCACGUCGCAGCCCCUGUCAGAUUCUGGUGAAUCUGCGAAUUCUCCUGUAAAUCUC, for which the self-cleavage amounted to 0.11. The value for UAACAGGGGGCCACAGCAGAAGCGUUCACGUCGCAGCCCCUGUCAGAUUCUGGUGAAUCUGCGAAUUCUCCCGUAUAUCUC was 0.31; that for UAACAGGGGGCCACAGCAGAAGCGUUCACGUCGCAGCCCCUGUCAGAUUCUGGUGAAUCUGCGAAUUCUGAUGUAUAUCCC was 0.63; that for UAACAGGGGGCCACAGCAGAAGCGUUCACGUCGCAGCCCCUGUCAGAUUCUGGUGAAUCUGCGAAUUCUGAUGUAUAUCAC was 0.37. In the case of UAACAGGGGGCCACAGCAGAAGCGUUCACGUCGCAGCCCCUGUCAGAUUCUGGUGAAUCUGCGAAUUCUGGUGUAUAUCUC it was 0.42; in that of UAACAGGGGGCCACAGCAGAAGCGUUCACGUCGCAGCCCCUGUCAGAUUCUGGUGAAUCUGCGAAUUCUGUUGUAUAUCUC, 0.68; in that of UAACAGGGGGCCACAGCAGAAGCGUUCACGUCGCAGCCCCUGUCAGAUUCUGGUGAAUCUGCGAAUUCUGAUGUAUAUCUC, 0.33.

UAACAGGGGGCCACAGCAGAAGCGUUCACGUCGCAGCCCCUGUCAGAUUCUGGUGAAUCUGCGAAUUCUGGUGUAUACCUC: the self-cleavage was determined as 0.36.

In the case of UAACAGGGGGCCACAGCAGAAGCGUUCACGUCGCAGCCCCUGUCAGAUUCUGGUGAAUCUGCGAAUUCUGUGGUAUAUCUC, the self-cleavage came to 0.62.

Take UAACAGGGGGCCACAGCAGAAGCGUUCACGUCGCAGCCCCUGUCAGAUUCUGGUGAAUCUGCGAAUUCUGUCGUAUAUCUC: the self-cleavage was 1.02.

For UAACAGGGGGCCACAGCAGAAGCGUUCACGUCGCAGCCCCUGUCAGAUUCUGGUGAAUCUGCGAAUUCUGCAGAAUAUCUC, the self-cleavage turned out to be 1.34. On to UAACAGGGGGCCACAGCAGAAGCGUUCACGUCGCAGCCCCUGUCAGAUUCUGGUGAAUCUGCGAAUUCUGCAGCAUAUCUC, for which the self-cleavage came to 1.16.

On to UAACAGGGGGCCACAGCAGAAGCGUUCACGUCGCAGCCCCUGUCAGAUUCUGGUGAAUCUGCGAAUUCUCUUGUAUAUCUC, for which the self-cleavage was 0.3.

For the variant UAACAGGGGGCCACAGCAGAAGCGUUCACGUCGCAGCCCCUGUCAGAUUCUGGUGAAUCUGCGAAUUCUGUUGUAUACCUC, the self-cleavage worked out at 0.77. The value for UAACAGGGGGCCACAGCAGAAGCGUUCACGUCGCAGCCCCUGUCAGAUUCUGGUGAAUCUGCGAAUUCUGUUGUAUAACUC was 0.65; that for UAACAGGGGGCCACAGCAGAAGCGUUCACGUCGCAGCCCCUGUCAGAUUCUGGUGAAUCUGCGAAUUCUUCGGUAUAUCUC was 0.35; that for UAACAGGGGGCCACAGCAGAAGCGUUCACGUCGCAGCCCCUGUCAGAUUCUGGUGAAUCUGCGAAUUCUUCCGUAUAUCUC was 0.42. With UAACAGGGGGCCACAGCAGAAGCGUUCACGUCGCAGCCCCUGUCAGAUUCUGGUGAAUCUGCGAAUUCUCCUGUAUAACUC, the self-cleavage came out at 0.17.

Regarding UAACAGGGGGCCACAGCAGAAGCGUUCACGUCGCAGCCCCUGUCAGAUUCUGGUGAAUCUGCGAAUUCUGCAGUGUAUCUC, the self-cleavage was 1.12.

As to UAACAGGGGGCCACAGCAGAAGCGUUCACGUCGCAGCCCCUGUCAGAUUCUGGUGAAUCUGCGAAUUCUGCAGUCUAUCUC, the self-cleavage came to 0.78.

As for UAACAGGGGGCCACAGCAGAAGCGUUCACGUCGCAGCCCCUGUCAGAUUCUGGUGAAUCUGCGAAUUCUGCAGUUUAUCUC, the self-cleavage amounted to 1.22.

For the variant UAACAGGGGGCCACAGCAGAAGCGUUCACGUCGCAGCCCCUGUCAGAUUCUGGUGAAUCUGCGAAUUCUGCAGUAUAACUC, the self-cleavage was found to be 0.72. Turning to UAACAGGGGGCCACAGCAGAAGCGUUCACGUCGCAGCCCCUGUCAGAUUCUGGUGAAUCUGCGAAUUCUGCAGUAUACCUC, the self-cleavage amounted to 0.8. As for UAACAGGGGGCCACAGCAGAAGCGUUCACGUCGCAGCCCCUGUCAGAUUCUGGUGAAUCUGCGAAUUCUGCAGUAUGUCUC, the self-cleavage was found to be 1.02. The value for UAACAGGGGGCCACAGCAGAAGCGUUCACGUCGCAGCCCCUGUCAGAUUCUGGUGAAUCUGCGAAUUCUGCAGUAUUUCUC was 0.89. The value for UAACAGGGGGCCACAGCAGAAGCGUUCACGUCGCAGCCCCUGUCAGAUUCUGGUGAAUCUGCGAAUUCUUCUGCAUAUCUC was 0.26. In the case of UAACAGGGGGCCACAGCAGAAGCGUUCACGUCGCAGCCCCUGUCAGAUUCUGGUGAAUCUGCGAAUUCUGAUGUUUAUCUC it was 0.17; in that of UAACAGGGGGCCACAGCAGAAGCGUUCACGUCGCAGCCCCUGUCAGAUUCUGGUGAAUCUGCGAAUUCUGCACUAUAUCUC, 1.25. Take UAACAGGGGGCCACAGCAGAAGCGUUCACGUCGCAGCCCCUGUCAGAUUCUGGUGAAUCUGCGAAUUCUGCAAUAUAUCUC: the self-cleavage was found to be 1.28. In the case of UAACAGGGGGCCACAGCAGAAGCGUUCACGUCGCAGCCCCUGUCAGAUUCUGGUGAAUCUGCGAAUUCUCCUGUAUGUCUC it was 0.49; in that of UAACAGGGGGCCACAGCAGAAGCGUUCACGUCGCAGCCCCUGUCAGAUUCUGGUGAAUCUGCGAAUUCUGUUGUAUAUCCC, 1.23.

Take UAACAGGGGGCCACAGCAGAAGCGUUCACGUCGCAGCCCCUGUCAGAUUCUGGUGAAUCUGCGAAUUCUGUUGUAUAUCAC: the self-cleavage came out at 0.72. As for UAACAGGGGGCCACAGCAGAAGCGUUCACGUCGCAGCCCCUGUCAGAUUCUGGUGAAUCUGCGAAUUCUCCUGUAUAUCCC, the self-cleavage is 0.22. With UAACAGGGGGCCACAGCAGAAGCGUUCACGUCGCAGCCCCUGUCAGAUUCUGGUGAAUCUGCGAAUUCUGCAGUAAAUCUC, the self-cleavage is 0.72. Turning to UAACAGGGGGCCACAGCAGAAGCGUUCACGUCGCAGCCCCUGUCAGAUUCUGGUGAAUCUGCGAAUUCUGCAGUACAUCUC, the self-cleavage was found to be 0.97. The value for UAACAGGGGGCCACAGCAGAAGCGUUCACGUCGCAGCCCCUGUCAGAUUCUGGUGAAUCUGCGAAUUCUGCAGUAGAUCUC was 0.54; that for UAACAGGGGGCCACAGCAGAAGCGUUCACGUCGCAGCCCCUGUCAGAUUCUGGUGAAUCUGCGAAUUCUGAUGUAUUUCUC was 0.36.

Turning to UAACAGGGGGCCACAGCAGAAGCGUUCACGUCGCAGCCCCUGUCAGAUUCUGGUGAAUCUGCGAAUUCUGCAGUAUAUCUU, the self-cleavage came to 1.11. The value for UAACAGGGGGCCACAGCAGAAGCGUUCACGUCGCAGCCCCUGUCAGAUUCUGGUGAAUCUGCGAAUUCUGCAGUAUAUCUA was 1.26; that for UAACAGGGGGCCACAGCAGAAGCGUUCACGUCGCAGCCCCUGUCAGAUUCUGGUGAAUCUGCGAAUUCUGCAGUAUAUCUG was 1.24. The value for UAACAGGGGGCCACAGCAGAAGCGUUCACGUCGCAGCCCCUGUCAGAUUCUGGUGAAUCUGCGAAUUCUGAUGUAUAGCUC was 0.11; that for UAACAGGGGGCCACAGCAGAAGCGUUCACGUCGCAGCCCCUGUCAGAUUCUGGUGAAUCUGCGAAUUCUGAUGUAUACCUC was 0.49. In the case of UAACAGGGGGCCACAGCAGAAGCGUUCACGUCGCAGCCCCUGUCAGAUUCUGGUGAAUCUGCGAAUUCUCCUGUAUAUCUC it was 0.31; in that of UAACAGGGGGCCACAGCAGAAGCGUUCACGUCGCAGCCCCUGUCAGAUUCUGGUGAAUCUGCGAAUUCUUCUGUAUAUCUC, 0.37; in that of UAACAGGGGGCCACAGCAGAAGCGUUCACGUCGCAGCCCCUGUCAGAUUCUGGUGAAUCUGCGAAUUCUGGUGUGUAUCUC, 0.62. As for UAACAGGGGGCCACAGCAGAAGCGUUCACGUCGCAGCCCCUGUCAGAUUCUGGUGAAUCUGCGAAUUCUGCCGUAUAUCUC, the self-cleavage turned out to be 1.13. In the case of UAACAGGGGGCCACAGCAGAAGCGUUCACGUCGCAGCCCCUGUCAGAUUCUGGUGAAUCUGCGAAUUCUGCAGUAUAUCUC it was 0.81; in that of UAACAGGGGGCCACAGCAGAAGCGUUCACGUCGCAGCCCCUGUCAGAUUCUGGUGAAUCUGCGAAUUCUGCCGUAUCUCUC, 1.07; in that of UAACAGGGGGCCACAGCAGAAGCGUUCACGUCGCAGCCCCUGUCAGAUUCUGGUGAAUCUGCGAAUUCUGGCGUAUAUCUC, 0.44. In the case of UAACAGGGGGCCACAGCAGAAGCGUUCACGUCGCAGCCCCUGUCAGAUUCUGGUGAAUCUGCGAAUUCUGCAGUAUAUUUC it was 0.68.

UAACAGGGGGCCACAGCAGAAGCGUUCACGUCGCAGCCCCUGUCAGAUUCUGGUGAAUCUGCGAAUUCUUCUGUAUAACUC: the self-cleavage is 0.48.

For UAACAGGGGGCCACAGCAGAAGCGUUCACGUCGCAGCCCCUGUCAGAUUCUGGUGAAUCUGCGAAUUCUGUUGUACAUCUC, the self-cleavage is 0.84. The value for UAACAGGGGGCCACAGCAGAAGCGUUCACGUCGCAGCCCCUGUCAGAUUCUGGUGAAUCUGCGAAUUCUGCAGUAUAUCCC was 1.29; that for UAACAGGGGGCCACAGCAGAAGCGUUCACGUCGCAGCCCCUGUCAGAUUCUGGUGAAUCUGCGAAUUCUGCAGUAUAUCGC was 0.99; that for UAACAGGGGGCCACAGCAGAAGCGUUCACGUCGCAGCCCCUGUCAGAUUCUGGUGAAUCUGCGAAUUCUGCAGUAUAUCAC was 1.11.

For UAACAGGGGGCCACAGCAGAAGCGUUCACGUCGCAGCCCCUGUCAGAUUCUGGUGAAUCUGCGAAUUCUUCUGUAUAUCAC, the self-cleavage amounted to 0.67. In the case of UAACAGGGGGCCACAGCAGAAGCGUUCACGUCGCAGCCCCUGUCAGAUUCUGGUGAAUCUGCGAAUUCUACUGUAUAGCUC it was 0.46. In the case of UAACAGGGGGCCACAGCAGAAGCGUUCACGUCGCAGCCCCUGUCAGAUUCUGGUGAAUCUGCGAAUUCUACUGUAUAACUC it was 0.43; in that of UAACAGGGGGCCACAGCAGAAGCGUUCACGUCGCAGCCCCUGUCAGAUUCUGGUGAAUCUGCGAAUUCUACUGUAUACCUC, 0.8.

(Values after the RNAGym collection of RNA variant scans (doi:10.1093/nar/gkz1192).)
